T1: human CDH6 on tumor cells (OVCAR3 cells, PA-1 cells) (human, UniProt P55285 54-790)
T1 sequence: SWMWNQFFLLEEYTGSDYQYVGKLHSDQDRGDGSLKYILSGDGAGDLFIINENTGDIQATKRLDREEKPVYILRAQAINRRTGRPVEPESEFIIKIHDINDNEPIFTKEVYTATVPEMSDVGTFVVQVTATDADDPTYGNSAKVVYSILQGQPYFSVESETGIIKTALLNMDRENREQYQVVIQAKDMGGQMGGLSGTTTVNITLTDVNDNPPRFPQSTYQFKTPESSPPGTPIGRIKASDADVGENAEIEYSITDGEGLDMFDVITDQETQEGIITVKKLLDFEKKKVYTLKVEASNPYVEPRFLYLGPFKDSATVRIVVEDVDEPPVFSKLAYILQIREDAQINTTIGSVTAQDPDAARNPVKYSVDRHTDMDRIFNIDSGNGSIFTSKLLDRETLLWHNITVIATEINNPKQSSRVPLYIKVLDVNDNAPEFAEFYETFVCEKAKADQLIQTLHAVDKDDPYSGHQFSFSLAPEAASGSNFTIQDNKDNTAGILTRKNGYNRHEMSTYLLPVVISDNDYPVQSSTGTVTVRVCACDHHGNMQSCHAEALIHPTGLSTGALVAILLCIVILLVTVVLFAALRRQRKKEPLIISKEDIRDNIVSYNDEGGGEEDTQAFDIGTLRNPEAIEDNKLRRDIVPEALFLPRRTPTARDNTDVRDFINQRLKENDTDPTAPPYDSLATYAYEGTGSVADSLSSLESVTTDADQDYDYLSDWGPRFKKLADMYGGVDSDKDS

T2: his-tagged human CDH6 extracellular region protein (hCDH6 ECD-his) (human, UniProt P55285 19-615)
T2 construct: also called Human CDH6-his; hCDH6-his; not shown: his tag
T2 sequence: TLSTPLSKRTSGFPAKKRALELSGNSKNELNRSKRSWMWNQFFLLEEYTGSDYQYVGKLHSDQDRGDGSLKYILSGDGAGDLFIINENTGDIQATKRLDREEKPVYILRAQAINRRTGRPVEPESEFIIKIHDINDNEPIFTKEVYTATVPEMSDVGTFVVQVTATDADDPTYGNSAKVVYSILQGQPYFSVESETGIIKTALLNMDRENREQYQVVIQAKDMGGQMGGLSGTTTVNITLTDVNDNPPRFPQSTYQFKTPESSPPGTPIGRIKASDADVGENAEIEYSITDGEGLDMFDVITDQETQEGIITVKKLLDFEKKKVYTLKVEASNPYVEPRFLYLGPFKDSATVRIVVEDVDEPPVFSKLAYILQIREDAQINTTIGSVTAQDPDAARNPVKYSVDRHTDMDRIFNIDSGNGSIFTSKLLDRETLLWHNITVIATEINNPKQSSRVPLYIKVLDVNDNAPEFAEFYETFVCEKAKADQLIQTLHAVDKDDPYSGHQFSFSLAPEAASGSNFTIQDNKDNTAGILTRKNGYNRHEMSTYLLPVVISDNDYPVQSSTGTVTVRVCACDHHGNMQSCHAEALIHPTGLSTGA


Columns and labels:
[1] = target: T1, human CDH6 on tumor cells (OVCAR3 …); assay: FACS, OVCAR3 cells
Method: (§1) OVCAR3 cells with high expression of CDH6 and PA-1 cells with moderate expression of CDH6 were used to detect the binding activity of the antibodies to the cells. […] The cells were washed once with PBS, counted, resuspended to 2×10⁶ cells/mL in an FACS buffer (PBS+2% FBS), and then added to a 96-well plate at 50 μL/well. The chimeric antibodies were diluted with FACS buffer (PBS+2% FBS) and added to the 96-well plate at 50 μL/well, and the plate was incubated at 4° C. for 1 h. […] The dilution was added to the 96-well plate at 50 μL/well, and the plate was incubated at 4° C. for 1 h. After the plates were centrifuged and washed 2 times with PBS, the cells were resuspended in an FACS buffer. The mean fluorescence intensity (MFI) was measured using FACS Canton II (BD). Analysis was performed by the GraphPad Prism software, data were fitted, and EC50 values were calculated. The chimeric antibodies tested had strong binding to both OVCAR3 cells and PA-1 cells.

[2] = target: T1, human CDH6 on tumor cells (OVCAR3 …); assay: FACS, PA-1 cells
Method: as §1

[3] = target: T2, his-tagged human CDH6 extracellular …; assay: SPR Biacore 8K, antibody captured on Protein A
Method: The affinity of the antibody for the antigen was determined by a multi-cycle kinetic method using a BIAcore 8K instrument. In each cycle, the antibody to be tested was captured using a Protein A chip (purchased from GE, Cat. No. 29-1275-56), and then the antigen human CDH6 protein (hCDH6-his, conventionally synthesized) was injected. The association and dissociation processes of the antibody with the antigen protein were recorded, and finally, the chip was regenerated using Glycine pH 1.5, wherein the mobile phase was HBS-EP+ (10 mM HEPES, 150 mM NaCl, 3 mM EDTA, 0.05% surfactant P20, and 1 mM Ca), the flow rate was 30 μL/min, the association time was 240 s, the dissociation time was 300 s, the regeneration time was 30 s, the detection temperature was 25° C., and the antigen concentration was 31.25-1000 nM. The data were analyzed using Biacore 8K analysis software (version No. 2.0) based on the 1:1 binding model to fit the antibody-antigen binding kinetic parameters, including the association rate constant ka, the dissociation rate constant kd, and the equilibrium dissociation constant KD. The affinity values of the control antibody DS-H01L02 were undetectable. Antibodies not shown in the table had undetectable affinity values.

EC50 [1] [nM] | Max MFI [1] [MFI] | EC50 [2] [nM] | Max MFI [2] [MFI] | Kd [3] [nM] | koff [3] [s⁻¹] | kon [3] [M⁻¹ s⁻¹] | Binder
0.13 | 14700 | 0.1 | 4390 | 8.87 | 0.00585 | 659000 | CHI-CDH6-1 (antibody, human IgG1, kappa, V domains shown, also called CHI-hCDH6-1; CH1-CDH6-1) VH: QVQLQQPGAELVRPGSSVKLSCKASGYTFTNYWMHWVKQRPIEGLEWIGDIDPSHSETHYTQKFKDKATLTVDKSSSTAYMQLSSLTSEDSAVYYCARGDLGRFDYWGQGTTLTVSS VL: DIVLTQSPASLAVSLGQRATISCRASESVSIHGTHLMHWYQQKSGQPPKLLIYAASNLESGVPARFSGSGSETDFTFNIHPVEEEDAATYFCQQSFEDPWTFGGGTKLEIKR
0.36 | 15600 | 0.2 | 4760 | 3.68 | 0.00185 | 503000 | CHI-CDH6-2 (antibody, human IgG1, kappa, V domains shown, also called chimeric antibody of murine CDH6-2) VH: EVQLQQSGPELVKPGASVRISCKASGYTFTDYYMNWVKQSHGKSLEWIGDIDPNNANTTYNQKFKGKATLTVDKSSSTAYMELRSLTSEDSAVYSCASFGYDVEWFGYWGQGTLVTVSA VL: QIVLTQSPALMSASPGEKVTMTCSASSSVSYMYWYQQKPRSSPKPWIYLTSNLASGVPARFSGSGSGTSYSLTISSMEAEDAATYYCQQWSSNPFTFGSGTKLEIKR
2.22 | 12500 | 2.27 | 3150 | – | – | – | CHI-CDH6-12 (antibody, human IgG1, kappa, V domains shown, also called CH1-CDH6-12; chimeric antibody of murine CDH6-12) VH: EVNLVESGGGLVQPGDSLTLSCSASGFTFTDYYMSWVRQFPGKALEWLALIRNKANSYTTEYSASVKGRFTISRDNSQSILYLQMNALRAEDSATYYCARDSYYSHDGFAYWGQGTLVTVSA VL: DIVLTQSPASLAVSLGQRATISCRASKSVSTSSYTYMHWYQQKPGQPPKLLIKFASYLESGVPARFSGSGSGTDFTLNIHPVEEEDAATYYCQHSREFPFTFGTGTKLEIKR
1.16 | 15500 | 0.13 | 3870 | – | – | – | CHI-CDH6-3 (antibody, human IgG1, kappa, V domains shown, also called CH1-CDH6-3; chimeric antibody of murine CDH6-3) VH: QVQLQQPGAELVKPGASVKLSCKASGYTFTSYWIHWVKQRPGQGLEWIGEINPSNGVTNCNENFKSKATLTVDKSSSTAYMQLSSLTSEDSAVYYCTIPNLLWWYFDVWGAGTTVTVSS VL: DIQMTQSPASLSVSVGETVTITCRASENIYSNLAWYQQKQGKSPQLLVYEATNLADGVPSRFSGSGSGTQYSLKINSLQSEDFGSYYCQHFWGTLWTFGGGTKLEIKR
0.8 | 9730 | 1.09 | 1880 | – | – | – | DS-H01L02 (antibody, human IgG1, kappa, V domains shown, Positive control, variable regions from WO2018212136A1; also called positive control anti-human CDH6 antibody) VH: EVQLVQSGAEVKKPGASVKVSCKASGYTFTRNFMHWVRQAPGQGLEWMGWIYPGDGETEYAQKFQGRVTITADTSTSTAYMELSSLRSEDTAVYYCARGVYGGFAGGYFDFWGQGTLVTVSS VL: DIQMTQSPSSLSASVGDRVTITCKASQNIYKNLAWYQQKPGKAPKLLIYDANTLQTGVPSRFSGSGSGSDFTLTISSLQPEDFATYFCQQYYSGWAFGQGTKVEIKR
0.57 | 12700 | 0.49 | 4560 | – | – | – | CHI-CDH6-5 (antibody, human IgG1, kappa, V domains shown, also called CH1-CDH6-5; chimeric antibody of murine CDH6-5) VH: QVQLQQSGAELVRPGTSVKMSCKAAEYTFTNYWIGWVKQRPGHGLEWIGDLYPGGDHANYNEKFEGKATLTADTSSSTAYMQLSSLTSEDSAIYYCARGMLTTGFDSWGQGTTLTVSS VL: DIVMSQSPSSLAVSAGEKVTMSCKSSQSLFNSRTRKNYLAWYQQKPGQSPKLLIYWASTRESGVPDRFTGSGSGTDFTLTISSVQAEDLAVYYCKQSYYLRTFGGGTKLEIKR
0.67 | 14800 | 0.43 | 4630 | 58.6 | 0.00508 | 86800 | CHI-CDH6-6 (antibody, human IgG1, kappa, V domains shown, also called CHI-hCDH6-6; chimeric antibody of murine CDH6-6) VH: EVQLQQSGPELVKPGDSVKMSCKASGYTFTDYYMAWVRQSHRKSLEWIGYIFPNSGGTDYSQKFKGKATLTVDKSSSTVYMELHSLTSEDSAVYYCARELGADYGDYYAMDHWGQGTSVSVSS VL: DIQMTQSPASLSASVGETVTITCRASENIDSYLAWYQQKQGKSPQLLVYSATLLADGVPSRFSGSGSGTQYSLKINSLKSEDVARYYCQHYYRTPPTFGSGTKLEIKR
5.57 | 12000 | 7.57 | 2470 | – | – | – | CHI-CDH6-7 (antibody, human IgG1, kappa, V domains shown, also called CH1-CDH6-7; chimeric antibody of murine CDH6-7) VH: EVKLVESGGGLVKPGGSLKVSCAASGFTFSDHGMAWVRQAPGKGPEWVAFISNLAYSIYYADTVTGRFTISRENAKNTLYLEMSSLRSEDTAMYYCARVYVKWYFDVWGAGTTVTVSS VL: DIQMTQSPASLSASVGETVTITCRASENIDSYLAWYQQKQGKSPQLLVFAATLLADGVPSRFSGSGSGTQYSLKINSLQSEDVARYYCQHYYSTPLTFGAGTKLELKR
0.46 | 16100 | 0.23 | 4710 | 31.2 | 0.00378 | 121000 | CHI-CDH6-8 (antibody, human IgG1, kappa, V domains shown, also called chimeric antibody of murine CDH6-8) VH: EVQLQQSGPELVKPGDSVKMSCKASGYTFTDYYMAWIKQNHGKSLEWIGYIYPNNGGTDYNQKFRGKATLTVDKSSSAAYMELHSLTSEDSAVYYCAREIGTLYGDYYAMDYWGQGTSVTVSS VL: DIQMTQSPASLSASVGETVTITCRASENIDSYLAWYQQKQGKSPQLLVYTATLLADGVPSRFSGSGSGTQYSLKINSLQSEDVARYYCQHYYSTPPTFGSGTKLEIKR
3.17 | 14000 | 2.48 | 3990 | – | – | – | CHI-CDH6-4 (antibody, human IgG1, kappa, V domains shown, also called CH1-CDH6-4; chimeric antibody of murine CDH6-4) VH: QVQLQQSGPELVKPGASVKISCKASGYAFSNFWMNWVKQRPGKGLEWIGWIYPGDGDTNYNGKFKDKATLTADKSSSTAYIQLSSLTSEDSAVYFCARLYDAWGFFDYWGQGTTLTVSS VL: QIVLTQSPAIMSASPGQKVTITCSASSSVNYMHWYQQKLGSSPKLWIYDKSKLAPGVPARFSGSGSGTSYSLTISSMEAEDAASYFCHQWSSYPPMTFGGGTKLEIKR
0.43 | 15700 | 0.26 | 5410 | – | – | – | CHI-CDH6-14 (antibody, human IgG1, kappa, V domains shown, also called CHI-hCDH6-14; CH1-CDH6-14) VH: QIQLQQSGPELVKPGTSVKISCKASGYTFTDNYINWVRQRPGQGLEWIGWIYPGTGNSYYNEKFKGKATLTVDTSSSTAYMQFSSLTSEDSAVYLCASSYGDSFDYWGQGTTLTVSS VL: DIQMTQTTSSLSASLGNRVTISCRASQDIRNYLNWYQQKPDGTFKLLISYTSRLHSGVPSRFSGSGSGTDYSLTVSNLEPEDIATYYCQQYSQLPWTFGGGSRLEIKR

From patent US20260234242A1 (HAINAN SIMCERE ZAIMING PHARMACEUTICAL, published 2026)
